Assay results taken from patent US20260317448 (published 2026).

B1: CDI022E3 (antibody, V domains shown)
VH: CQSLEESGGRLVTPGTPLTLTCTVSGIDLSTYAMGWVRQAPGEGLEWIGTIGVSGSTYYASWAKGRFTISKTSTTVDLKMTSPATEDTATYFCARGSVWGPGTLVTVSL
VL: AQVLTQTPASVEAAVGGTVTIKCQASQSISTWLAWYQQKPGQAPKRLIYSASTLASGVSSRFKGSGSGTEFTLTISDLECADAATYYCRCSYGKSYGEAFGGGTEVVVKG
B2: CDI005E8 (antibody, V domains shown)
VH: CQSLEESGGGLVQPGASLTLTCTASGFSFTNNYWIYWVRQAPGKGLEWIGSVIISSSSAYYASWAKGRFTITKPSSTTVTLQVTSLTAADTATYFCVTGGILWGPGTLVTVSS
VL: MDTRAPTQLLGLLLLWLPGARCDVVMTQTPASVEAAVGGTVTIKCQASQSIGTALAWYQQKPGQPPKRLIYKASTLTSGVPSRFKGSGSGTDFTLTISDLECADAATYYCQCTVDDSSSGSSYGNAFGGGTEVVVRG

Experiments:
[1] = biological target: T1, 2-hsALPI peptide (human, intestinal alkaline phosphatase aa234-250); test: ELISA
T1 chain: PEYPADASQNGIRLDGK

[2] = biological target: T2, 6-hsALPI peptide (human, intestinal alkaline phosphatase aa416-438); test: ELISA
T2 chain: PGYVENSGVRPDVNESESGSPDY

[3] = biological target: T3, germ cell alkaline phosphatase (human, UniProt P10696); test: other, western blot
T3 chain: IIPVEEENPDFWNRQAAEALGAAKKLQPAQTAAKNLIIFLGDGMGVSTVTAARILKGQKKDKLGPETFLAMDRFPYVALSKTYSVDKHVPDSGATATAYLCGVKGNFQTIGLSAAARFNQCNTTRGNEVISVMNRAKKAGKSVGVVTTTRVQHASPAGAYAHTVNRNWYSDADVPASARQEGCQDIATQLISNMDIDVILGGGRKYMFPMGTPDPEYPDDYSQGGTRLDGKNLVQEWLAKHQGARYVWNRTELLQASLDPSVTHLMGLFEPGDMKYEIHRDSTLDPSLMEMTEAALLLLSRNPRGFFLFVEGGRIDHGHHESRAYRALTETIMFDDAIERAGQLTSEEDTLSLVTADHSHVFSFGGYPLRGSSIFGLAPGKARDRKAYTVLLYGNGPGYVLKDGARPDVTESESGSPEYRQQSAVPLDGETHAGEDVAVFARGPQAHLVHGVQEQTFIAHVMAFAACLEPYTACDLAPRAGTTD

[4] = biological target: T4, tissue-nonspecific alkaline phosphatase (human, UniProt P05186); test: other, western blot
T4 chain: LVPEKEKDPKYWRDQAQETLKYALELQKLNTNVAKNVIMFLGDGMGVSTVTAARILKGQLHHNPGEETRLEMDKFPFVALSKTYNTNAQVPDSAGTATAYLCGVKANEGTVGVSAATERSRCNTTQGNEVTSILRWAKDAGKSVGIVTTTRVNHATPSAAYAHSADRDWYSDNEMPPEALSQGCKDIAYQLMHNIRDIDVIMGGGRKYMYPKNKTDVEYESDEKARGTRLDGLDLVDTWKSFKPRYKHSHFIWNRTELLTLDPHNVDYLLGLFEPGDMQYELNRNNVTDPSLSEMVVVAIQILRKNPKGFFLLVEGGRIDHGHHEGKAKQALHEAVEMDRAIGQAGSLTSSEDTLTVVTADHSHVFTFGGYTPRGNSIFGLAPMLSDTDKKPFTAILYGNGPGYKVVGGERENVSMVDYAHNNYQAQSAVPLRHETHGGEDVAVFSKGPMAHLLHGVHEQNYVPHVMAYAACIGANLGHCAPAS

[5] = biological target: T5, placental alkaline phosphatase (human, UniProt P05187); test: other, western blot
T5 chain: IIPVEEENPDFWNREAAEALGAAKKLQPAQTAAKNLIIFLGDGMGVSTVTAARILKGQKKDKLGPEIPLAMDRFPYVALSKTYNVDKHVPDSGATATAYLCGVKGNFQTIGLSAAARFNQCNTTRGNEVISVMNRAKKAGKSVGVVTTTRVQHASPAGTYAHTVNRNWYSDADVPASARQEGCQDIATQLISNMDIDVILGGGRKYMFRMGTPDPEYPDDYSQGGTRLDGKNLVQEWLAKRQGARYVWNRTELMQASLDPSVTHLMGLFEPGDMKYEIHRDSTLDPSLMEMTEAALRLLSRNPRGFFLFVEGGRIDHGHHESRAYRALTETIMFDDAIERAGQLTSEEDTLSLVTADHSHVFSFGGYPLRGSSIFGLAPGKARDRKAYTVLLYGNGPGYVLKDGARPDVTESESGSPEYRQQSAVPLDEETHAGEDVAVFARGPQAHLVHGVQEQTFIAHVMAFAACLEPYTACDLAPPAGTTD

Row | Binder | Kd [1] [nM] | Kd [2] [nM] | binding result [3] | binding result [4] | binding result [5]
1 | B1 | 0.021 | 0.2 |  |  | 
2 | B2 | 0.00711 |  | no binding | no binding | no binding
